ECL signal data for 3 substances are collected here from US20110318339A1.

Assay [1] has as its target rHuman P-Cadherin/Fc Chimera, CF (Cat# 861-PC) (human) (UniProt P22223). The assay can be described thus: Multispot ECL; Fab 232.5 nM.
For assay [2], the target named is rHuman EGF R/Fc Chimera, CF (Cat# 344-ER) (human) (UniProt P00533). Kind of assay: Multispot ECL; Fab 232.5 nM.
Assay [3] addresses rHuman P-Cadherin/Fc Chimera, CF (Cat# 861-PC) (human) (UniProt P22223). The assay can be described thus: Multispot ECL; Fab 930 nM.
In assay [4] the target is rHuman EGF R/Fc Chimera, CF (Cat# 344-ER) (human) (UniProt P00533). Kind of assay: Multispot ECL; Fab 930 nM.
Assay [5] concerns the target rHuman P-Cadherin/Fc Chimera, CF (Cat# 861-PC) (human) (UniProt P22223). Kind of assay: Multispot ECL; Fab 58.1 nM.
Assay [6] concerns the target rHuman EGF R/Fc Chimera, CF (Cat# 344-ER) (human) (UniProt P00533). The assay can be described thus: Multispot ECL; Fab 58.1 nM.
In assay [7] the target is rHuman P-Cadherin/Fc Chimera, CF (Cat# 861-PC) (human) (UniProt P22223). The assay can be described thus: Multispot ECL; Fab 14.5 nM.
In assay [8] the target is rHuman EGF R/Fc Chimera, CF (Cat# 344-ER) (human) (UniProt P00533). The assay can be described thus: Multispot ECL; Fab 14.5 nM.
Assay [9] has as its target rHuman IGF-1 sR, (IGF-1 sR), CF (Cat# 391-GR) (human) (UniProt P08069). Kind of assay: Multispot ECL; Fab 210 nM.
Assay [10] concerns the target rHuman Erythropoietin R/Fc Chimera, CF (Cat# 963-ER) (human) (UniProt P19235). The assay can be described thus: Multispot ECL; Fab 210 nM.
Assay [11] deals with rHuman EGF R/Fc Chimera, CF (Cat# 344-ER) (human) (UniProt P00533). Kind of assay: Multispot ECL; Fab 210 nM.
For assay [12], the target named is rHuman ErbB2/Fc Chimera, CF (Cat# 1129-ER) (human) (UniProt P04626). Kind of assay: Multispot ECL; Fab 210 nM.
Assay [13] has as its target rHuman Notch-1/Fc Chimera, CF (Cat# 3647-TK) (human) (UniProt P46531). The assay can be described thus: Multispot ECL; Fab 210 nM.
Assay [14] concerns the target rHuman HGF R/c-MET/Fc Chimera, CF (Cat# 358-MT/CF) (human) (UniProt P08581). Kind of assay: Multispot ECL; Fab 210 nM.
The target in assay [15] is rHuman IGF-1 sR, (IGF-1 sR), CF (Cat# 391-GR) (human) (UniProt P08069). The assay can be described thus: Multispot ECL; Fab […].
Assay [16] deals with rHuman Erythropoietin R/Fc Chimera, CF (Cat# 963-ER) (human) (UniProt P19235). Kind of assay: Multispot ECL; Fab […].
Sequence of rHuman Erythropoietin R/Fc Chimera, CF (Cat# 963-ER) (human) (P19235 25-250, change not shown): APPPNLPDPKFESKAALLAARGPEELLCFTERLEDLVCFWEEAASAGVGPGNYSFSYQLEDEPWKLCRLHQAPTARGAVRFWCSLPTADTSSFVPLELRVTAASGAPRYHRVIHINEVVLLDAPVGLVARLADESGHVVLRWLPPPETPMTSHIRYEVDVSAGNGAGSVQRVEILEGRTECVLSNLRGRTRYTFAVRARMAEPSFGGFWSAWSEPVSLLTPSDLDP
Assay [17] has as its target rHuman EGF R/Fc Chimera, CF (Cat# 344-ER) (human) (UniProt P00533). The assay can be described thus: Multispot ECL; Fab […].
Assay [18] addresses rHuman ErbB2/Fc Chimera, CF (Cat# 1129-ER) (human) (UniProt P04626). Kind of assay: Multispot ECL; Fab […].
The target of assay [19] is rHuman Notch-1/Fc Chimera, CF (Cat# 3647-TK) (human) (UniProt P46531). The assay can be described thus: Multispot ECL; Fab […].
For assay [20], the target named is rHuman HGF R/c-MET/Fc Chimera, CF (Cat# 358-MT/CF) (human) (UniProt P08581). The assay can be described thus: Multispot ECL; Fab […].
The target of assay [21] is rHuman IGF-1 sR, (IGF-1 sR), CF (Cat# 391-GR) (human) (UniProt P08069). The assay can be described thus: Multispot ECL; Fab 3.3 nM.
Assay [22] addresses rHuman Erythropoietin R/Fc Chimera, CF (Cat# 963-ER) (human) (UniProt P19235). Kind of assay: Multispot ECL; Fab 3.3 nM.
Assay [23] has as its target rHuman EGF R/Fc Chimera, CF (Cat# 344-ER) (human) (UniProt P00533). Kind of assay: Multispot ECL; Fab 3.3 nM.
The target in assay [24] is rHuman ErbB2/Fc Chimera, CF (Cat# 1129-ER) (human) (UniProt P04626). Kind of assay: Multispot ECL; Fab 3.3 nM.
Assay [25] concerns the target rHuman Notch-1/Fc Chimera, CF (Cat# 3647-TK) (human) (UniProt P46531). The assay can be described thus: Multispot ECL; Fab 3.3 nM.
The target in assay [26] is rHuman HGF R/c-MET/Fc Chimera, CF (Cat# 358-MT/CF) (human) (UniProt P08581). Kind of assay: Multispot ECL; Fab 3.3 nM.
Assay [27] has as its target rHuman IGF-1 sR, (IGF-1 sR), CF (Cat# 391-GR) (human) (UniProt P08069). Kind of assay: Multispot ECL; Fab 52.5 nM.
Assay [28] addresses rHuman Erythropoietin R/Fc Chimera, CF (Cat# 963-ER) (human) (UniProt P19235). The assay can be described thus: Multispot ECL; Fab 52.5 nM.
Assay [29] concerns the target rHuman EGF R/Fc Chimera, CF (Cat# 344-ER) (human) (UniProt P00533). The assay can be described thus: Multispot ECL; Fab 52.5 nM.
Assay [30] addresses rHuman ErbB2/Fc Chimera, CF (Cat# 1129-ER) (human) (UniProt P04626). Kind of assay: Multispot ECL; Fab 52.5 nM.
The target in assay [31] is rHuman Notch-1/Fc Chimera, CF (Cat# 3647-TK) (human) (UniProt P46531). Kind of assay: Multispot ECL; Fab 52.5 nM.
Assay [32] deals with rHuman HGF R/c-MET/Fc Chimera, CF (Cat# 358-MT/CF) (human) (UniProt P08581). Kind of assay: Multispot ECL; Fab 52.5 nM.
In assay [33] the target is rHuman IGF-1 sR, (IGF-1 sR), CF (Cat# 391-GR) (human) (UniProt P08069). The assay can be described thus: Multispot ECL; Fab 580 nM.
Assay [34] concerns the target rHuman Erythropoietin R/Fc Chimera, CF (Cat# 963-ER) (human) (UniProt P19235). The assay can be described thus: Multispot ECL; Fab 580 nM.
Assay [35] deals with rHuman P-Cadherin/Fc Chimera, CF (Cat# 861-PC) (human) (UniProt P22223). Kind of assay: Multispot ECL; Fab 580 nM.
Assay [36] concerns the target rHuman EGF R/Fc Chimera, CF (Cat# 344-ER) (human) (UniProt P00533). Kind of assay: Multispot ECL; Fab 580 nM.
Assay [37] has as its target rHuman ErbB2/Fc Chimera, CF (Cat# 1129-ER) (human) (UniProt P04626). Kind of assay: Multispot ECL; Fab 580 nM.
The target in assay [38] is rHuman Notch-1/Fc Chimera, CF (Cat# 3647-TK) (human) (UniProt P46531). Kind of assay: Multispot ECL; Fab 580 nM.
Assay [39] addresses rHuman HGF R/c-MET/Fc Chimera, CF (Cat# 358-MT/CF) (human) (UniProt P08581). Kind of assay: Multispot ECL; Fab 580 nM.
Assay [40] addresses rHuman IGF-1 sR, (IGF-1 sR), CF (Cat# 391-GR) (human) (UniProt P08069). The assay can be described thus: Multispot ECL; Fab 145 nM.
For assay [41], the target named is rHuman Erythropoietin R/Fc Chimera, CF (Cat# 963-ER) (human) (UniProt P19235). Kind of assay: Multispot ECL; Fab 145 nM.
The target in assay [42] is rHuman P-Cadherin/Fc Chimera, CF (Cat# 861-PC) (human) (UniProt P22223). Kind of assay: Multispot ECL; Fab 145 nM.
Assay [43] has as its target rHuman EGF R/Fc Chimera, CF (Cat# 344-ER) (human) (UniProt P00533). Kind of assay: Multispot ECL; Fab 145 nM.
Assay [44] deals with rHuman Notch-1/Fc Chimera, CF (Cat# 3647-TK) (human) (UniProt P46531). The assay can be described thus: Multispot ECL; Fab 145 nM.
Assay [45] addresses rHuman HGF R/c-MET/Fc Chimera, CF (Cat# 358-MT/CF) (human) (UniProt P08581). Kind of assay: Multispot ECL; Fab 145 nM.
Assay [46] deals with rHuman IGF-1 sR, (IGF-1 sR), CF (Cat# 391-GR) (human) (UniProt P08069). The assay can be described thus: Multispot ECL; Fab 36.3 nM.
Assay [47] addresses rHuman Erythropoietin R/Fc Chimera, CF (Cat# 963-ER) (human) (UniProt P19235). The assay can be described thus: Multispot ECL; Fab 36.3 nM.
Assay [48] concerns the target rHuman P-Cadherin/Fc Chimera, CF (Cat# 861-PC) (human) (UniProt P22223). The assay can be described thus: Multispot ECL; Fab 36.3 nM.
In assay [49] the target is rHuman EGF R/Fc Chimera, CF (Cat# 344-ER) (human) (UniProt P00533). The assay can be described thus: Multispot ECL; Fab 36.3 nM.
The target of assay [50] is rHuman ErbB2/Fc Chimera, CF (Cat# 1129-ER) (human) (UniProt P04626). The assay can be described thus: Multispot ECL; Fab 36.3 nM.
For assay [51], the target named is rHuman Notch-1/Fc Chimera, CF (Cat# 3647-TK) (human) (UniProt P46531). The assay can be described thus: Multispot ECL; Fab 36.3 nM.
In assay [52] the target is rHuman HGF R/c-MET/Fc Chimera, CF (Cat# 358-MT/CF) (human) (UniProt P08581). Kind of assay: Multispot ECL; Fab 36.3 nM.
Assay [53] deals with rHuman IGF-1 sR, (IGF-1 sR), CF (Cat# 391-GR) (human) (UniProt P08069). The assay can be described thus: Multispot ECL; Fab 9.1 nM.
Assay [54] has as its target rHuman Erythropoietin R/Fc Chimera, CF (Cat# 963-ER) (human) (UniProt P19235). The assay can be described thus: Multispot ECL; Fab 9.1 nM.
For assay [55], the target named is rHuman P-Cadherin/Fc Chimera, CF (Cat# 861-PC) (human) (UniProt P22223). The assay can be described thus: Multispot ECL; Fab 9.1 nM.
The target of assay [56] is rHuman EGF R/Fc Chimera, CF (Cat# 344-ER) (human) (UniProt P00533). The assay can be described thus: Multispot ECL; Fab 9.1 nM.
Assay [57] deals with rHuman ErbB2/Fc Chimera, CF (Cat# 1129-ER) (human) (UniProt P04626). Kind of assay: Multispot ECL; Fab 9.1 nM.
The target of assay [58] is rHuman Notch-1/Fc Chimera, CF (Cat# 3647-TK) (human) (UniProt P46531). Kind of assay: Multispot ECL; Fab 9.1 nM.
For assay [59], the target named is rHuman HGF R/c-MET/Fc Chimera, CF (Cat# 358-MT/CF) (human) (UniProt P08581). Kind of assay: Multispot ECL; Fab 9.1 nM.

With “Fab VH1-46_IGHD6-13*01_IGHJ4*01 & O1_IGKJ1*01”, the ECL signal came to 655 in [1]; 803 in [2]; 2440 in assay [3]; 3110 in assay [4]; 478 in assay [5]; 444 in assay [6]. Besides, the ECL signal was 277 in assay [7] and 357 in assay [8].

In the case of “Fab VH4-31_IGHD2-15*01_IGHJ2*01 & V1-4_IGLJ4*01”, the ECL signal in assay [9] came out at 1430; in assay [10] it was 2120; in assay [11], 1620; in [12] it was 1980; in assay [13], 1970; in assay [14], 2060. Also, the ECL signal amounted to 814 in assay [15]; 776 in [16]; 824 in [17]; 930 in assay [18]; 669 in assay [19]; 981 in [20]. The ECL signal in [21] turned out to be 743; in [22] it was 695; in [23], 847; in assay [24], 1030; in assay [25] it was 726; in assay [26] it was 849. Further, the ECL signal turned out to be 911 in assay [27]; 1320 in assay [28]; 1110 in assay [29]; 1510 in assay [30]; 1320 in assay [31]; 1290 in assay [32].

As for “Fab VH4-34_IGHD7-27*01_IGHJ4*01 & V1-4_IGLJ4*01”, the ECL signal in assay [33] turned out to be 1360; in [34], 1580; in assay [35], 2240; in assay [36], 1630; in [37], 1710; in assay [38], 1580. The ECL signal amounted to 2340 in assay [39]; 794 in assay [40]; 845 in assay [41]; 850 in assay [42]; 856 in assay [43]; 860 in [44]. The ECL signal in assay [45] amounted to 1170; in [46], 799; in [47] it was 722; in assay [48], 684; in assay [49], 831; in assay [50], 1030. For the same substance, the ECL signal amounted to 633 in assay [51]; 1060 in [52]; 788 in assay [53]; 697 in [54]; 589 in assay [55]; 800 in assay [56]. Besides, the results for the ECL signal in assay [57], in assay [58] and in assay [59] were 987, 754 and 894, respectively.
